The supplement of paper PMC11246515
± gives the standard deviation of the averaged measurements.

Test: total protein half-life in vivo (active degradation + dilution); higher = more stable protein
[1] = E. coli NCM3722 delta-clpP delta-lon delta-hslV, growth: N-lim chemostat, doubling time 6 h
[2] = E. coli NCM3722 delta-clpP, growth: N-lim chemostat, doubling time 6 h
[3] = E. coli NCM3722 delta-hslV, growth: N-lim chemostat, doubling time 6 h
[4] = E. coli NCM3722 delta-lon, growth: N-lim chemostat, doubling time 6 h
[5] = E. coli NCM3722 delta-smpB, growth: N-lim chemostat, doubling time 6 h
[6] = wild type E. coli NCM3722, growth: C-lim chemostat, doubling time 3 h
[7] = wild type E. coli NCM3722, growth: C-lim chemostat, doubling time 6 h
[8] = wild type E. coli NCM3722, growth: C-lim chemostat, doubling time 12 h
[9] = wild type E. coli NCM3722, growth: N-lim chemostat, doubling time 6 h
[10] = wild type E. coli NCM3722, growth: N-lim chemostat, doubling time 12 h
[11] = wild type E. coli NCM3722, growth: P-lim chemostat, doubling time 6 h
[12] = wild type E. coli NCM3722, growth: P-lim chemostat, doubling time 12 h

| Sequence | total protein half-life in vivo [1] [h] | total protein half-life in vivo [2] [h] | total protein half-life in vivo [3] [h] | total protein half-life in vivo [4] [h] | total protein half-life in vivo [5] [h] | total protein half-life in vivo [6] [h] | total protein half-life in vivo [7] [h] | total protein half-life in vivo [8] [h] | total protein half-life in vivo [9] [h] | total protein half-life in vivo [10] [h] | total protein half-life in vivo [11] [h] | total protein half-life in vivo [12] [h] |
| --- | --- | --- | --- | --- | --- | --- | --- | --- | --- | --- | --- | --- |
| MFALCDVNAFYASCETVFRPDLWGKPVVVLSNNDGCVIARNAEAKALGVKMGDPWFKQKDLFRRCGVVCFSSNYELYADMSNRVMSTLEELSPRVEIYSIDEAFCDLTGVRNCRDLTDFGREIRATVLQRTHLTVGVGIAQTKTLAKLANHAAKKWQRQTGGVVDLSNLERQRKLMSALPVDDVWGIGRRISKKLDAMGIKTVLDLADTDIRFIRKHFNVVLERTVRELRGEPCLQLEEFAPTKQEIICSRSFGERITDYPSMRQAICSYAARAAEKLRSEHQYCRFISTFIKTSPFALNEPYYGNSASVKLLTPTQDSRDIINAATRSLDAIWQAGHRYQKAGVMLGDFFSQGVAQLNLFDDNAPRPGSEQLMTVMDTLNAKEGRGTLYFAGQGIQQQWQMKRAMLSPRYTTRSSDLLRVK | 5.93 |  |  |  |  |  |  |  |  |  |  |  |
| MKTPLVTREGYEKLKQELNYLWREERPEVTKKVTWAASLGDRSENADYQYNKKRLREIDRRVRYLTKCLENLKIVDYSPQQEGKVFFGAWVEIENDDGVTHRFRIVGYDEIFGRKDYISIDSPMARALLKKEVGDLAVVNTPAGEASWYVNAIEYVKP | 4.94 ± 0.26 | 3.85 ± 0.086 | 3.36 ± 0.21 | 4.34 ± 0.27 | 3.07 ± 0.3 | 2.83 ± 0.18 | 4.63 ± 0.26 | 7.33 ± 1.7 | 3.48 ± 0.33 | 5.226 ± 0.025 | 4.65 ± 0.57 | 8.01 ± 0.72 |
| MATLTAKNLAKAYKGRRVVEDVSLTVNSGEIVGLLGPNGAGKTTTFYMVVGIVPRDAGNIIIDDDDISLLPLHARARRGIGYLPQEASIFRRLSVYDNLMAVLQIRDDLSAEQREDRANELMEEFHIEHLRDSMGQSLSGGERRRVEIARALAANPKFILLDEPFAGVDPISVIDIKRIIEHLRDSGLGVLITDHNVRETLAVCERAYIVSQGHLIAHGTPTEILQDEHVKRVYLGEDFRL [P0A9V1] | 6.21 ± 0.31 | 6.33 ± 0.48 | 5.919 ± 0.031 | 6.05 ± 0.57 | 5.51 ± 0.55 | 2.811 ± 0.004 | 6.061 ± 0.04 | 11.2 ± 0.66 | 5.52 ± 0.24 | 13.3 ± 0.87 | 5.46 ± 0.24 | 12.4 ± 0.82 |
| MKIRSLSRFVLASTMFASFTASAVPGLWQQGYGQGNAEYSVTDASGKMFTINCTGNPDQNGIYQHSVFLILAGDKTVSSHDDSTGITVVMDHKQYAIPSTLGWRNGDNAWFSFIMDIRKARQFDVYVNDQKVGSFNPDVRNAQKVLPTLADCTND |  |  |  |  |  | 1.45 |  |  |  |  |  |  |
| MITRIPRSSFSANINNTAQTNEHQTLSELFYKELEDKFSGKELATPLLKSFSENCRQNGRHIFSNKDFVIKFSTSVLQADKKEITIINKNENTTLTQTIAPIFEKYLMEILPQRSDTLDKQELNLKSDRKEKEFPRIKLNGQCYFPGRPQNRIVCRHIAAQYINDIYQNVDYKPHQDDYSSAEKFLTHFNKKCKNQTLALVSSRPEGRCVAACGDFGLVMKAYFDKMESNGISVMAAILLVDNHALTVRLRIKNTTEGCTHYVVSVYDPNVTNDKIRIMSESKENIKHYSLMDFMNVDYSLLKWSNDHVINQSVAIIPALPKEQLLMLKGSVDEITPPLSPATMNLLMAIGQNHQLTQLMIQLQKMPELHRTEMLTAYNSINLPGLYLAINYGNADIVETIFNSLSETGYEGLLSKKNLMHILEAKDKNGFSGLFLAISRKDKNVVTSILNALPKLAATHHLDNEQVYKFLSAKNRTSSHVLYHVMANGDADMLKIVLNALPLLIRTCHLTKEQVLDLLKAKDFYGCPGLYLAMQNGHSDIVKVILEALPSLAQEINISASDIVDLLTAKSLARDTGLFMAMQRGHMNVINTIFNALPTLFNTFKFDKKNMKPLLLANNSNEYPGLFSAIQHKQQNVVETVYLALSDHARLFGFTAEDIMDFWQHKAPQKYSAFELAFEFGHRVIAELILNTLNKMAESFGFTDNPRYIAEKNYMEALLKKASPHTVR |  |  |  |  |  |  | 5.49 |  |  |  |  |  |
| MSSMTTTDNKAFLNELARLVGSSHLLTDPAKTARYRKGFRSGQGDALAVVFPGSLLELWRVLKACVTADKIILMQAANTGLTEGSTPNGNDYDRDVVIISTLRLDKLHVLGKGEQVLAYPGTTLYSLEKALKPLGREPHSVIGSSCIGASVIGGICNNSGGSLVQRGPAYTEMSLFARINEDGKLTLVNHLGIDLGETPEQILSKLDDDRIKDDDVRHDGRHAHDYDYVHRVRDIEADTPARYNADPDRLFESSGCAGKLAVFAVRLDTFEAEKNQQVFYIGTNQPEVLTEIRRHILANFENLPVAGEYMHRDIYDIAEKYGKDTFLMIDKLGTDKMPFFFNLKGRTDAMLEKVKFFRPHFTDRAMQKFGHLFPSHLPPRMKNWRDKYEHHLLLKMAGDGVGEAKSWLVDYFKQAEGDFFVCTPEEGSKAFLHRFAAAGAAIRYQAVHSDEVEDILALDIALRRNDTEWYEHLPPEIDSQLVHKLYYGHFMCYVFHQDYIVKKGVDVHALKEQMLELLQQRGAQYPAEHNVGHLYKAPETLQKFYRENDPTNSMNPGIGKTSKRKNWQEVE | 6.43 ± 0.27 | 6.81 ± 1 | 5.82 ± 0.25 | 5.72 ± 0.37 | 5.06 ± 0.94 | 1.97 ± 0.11 | 4.28 ± 0.33 | 10 ± 0.23 | 5.98 ± 0.4 | 10.2 ± 0.66 | 4.92 ± 0.78 | 9.79 ± 1.1 |
| MMIRERIEEKLRAAFQPVFLEVVDESYRHNVPAGSESHFKVVLVSDRFTGERFLNRHRMIYSTLAEELSTTVHALALHTYTIKEWEGLQDTVFASPPCRGAGSIA [P0ABE2] | 3.71 ± 0.15 |  |  | 1.81 ± 0.13 | 1.55 | 1.53 ± 0.071 | 2.52 ± 0.14 | 3.32 | 1.99 ± 0.31 | 3.19 | 3.23 | 5.55 ± 0.6 |
| MSDTTELVDLAVIFPDLEIELKYACADNITGKAIYQQARCLLHKDAITALAKSISIAQLSGLQLVIYDAYRPQQAQAMLWQACPDPQYVVDVTVGSNHSRGTAIDLTLRDEHGNILDMGAGFDEMHERSHAYHPSVPPAAQRNRLLLNAIMTGGGFVGISSEWWHFELPQAASYPLLADQFSCFISPGTQHVS | 5.51 ± 0.24 | 1.76 | 2.69 ± 0.14 | 3.64 ± 0.33 | 1.89 ± 0.17 | 0.884 | 1.97 ± 0.47 |  | 2.72 ± 0.22 | 4.71 ± 0.84 |  |  |
| MSTEIKTQVVVLGAGPAGYSAAFRCADLGLETVIVERYNTLGGVCLNVGCIPSKALLHVAKVIEEAKALAEHGIVFGEPKTDIDKIRTWKEKVINQLTGGLAGMAKGRKVKVVNGLGKFTGANTLEVEGENGKTVINFDNAIIAAGSRPIQLPFIPHEDPRIWDSTDALELKEVPERLLVMGGGIIGLEMGTVYHALGSQIDVVEMFDQVIPAADKDIVKVFTKRISKKFNLMLETKVTAVEAKEDGIYVTMEGKKAPAEPQRYDAVLVAIGRVPNGKNLDAGKAGVEVDDRGFIRVDKQLRTNVPHIFAIGDIVGQPMLAHKGVHEGHVAAEVIAGKKHYFDPKVIPSIAYTEPEVAWVGLTEKEAKEKGISYETATFPWAASGRAIASDCADGMTKLIFDKESHRVIGGAIVGTNGGELLGEIGLAIEMGCDAEDIALTIHAHPTLHESVGLAAEVFEGSITDLPNPKAKKK [P0A9P0] | 6.89 ± 0.093 | 6.28 ± 0.24 | 6.35 ± 0.43 | 6.43 ± 0.36 | 6.01 ± 0.24 | 3.11 ± 0.081 | 6.68 ± 0.33 | 12.6 ± 1.1 | 6.23 ± 0.55 | 13.1 ± 0.57 | 6.11 ± 0.12 | 14.4 ± 0.26 |
| MNKKIHSLALLVNLGIYGVAQAQEPTDTPVSHDDTIVVTAAEQNLQAPGVSTITADEIRKNPVARDVSKIIRTMPGVNLTGNSTSGQRGNNRQIDIRGMGPENTLILIDGKPVSSRNSVRQGWRGERDTRGDTSWVPPEMIERIEVLRGPAAARYGNGAAGGVVNIITKKGSGEWHGSWDAYFNAPEHKEEGATKRTNFSLTGPLGDEFSFRLYGNLDKTQADAWDINQGHQSARAGTYATTLPAGREGVINKDINGVVRWDFAPLQSLELEAGYSRQGNLYAGDTQNTNSDSYTRSKYGDETNRLYRQNYALTWNGGWDNGVTTSNWVQYEHTRNSRIPEGLAGGTEGKFNEKATQDFVDIDLDDVMLHSEVNLPIDFLVNQTLTLGTEWNQQRMKDLSSNTQALTGTNTGGAIDGVSTTDRSPYSKAEIFSLFAENNMELTDSTIVTPGLRFDHHSIVGNNWSPALNISQGLGDDFTLKMGIARAYKAPSLYQTNPNYILYSKGQGCYASAGGCYLQGNDDLKAETSINKEIGLEFKRDGWLAGVTWFRNDYRNKIEAGYVAVGQNAVGTDLYQWDNVPKAVVEGLEGSLNVPVSETVMWTNNITYMLKSENKTTGDRLSIIPEYTLNSTLSWQAREDLSMQTTFTWYGKQQPKKYNYKGQPAVGPETKEISPYSIVGLSATWDVTKNVSLTGGVDNLFDKRLWRAGNAQTTGDLAGANYIAGAGAYTYNEPGRTWYMSVNTHF |  | 5.83 |  |  |  | 3.068 ± 0.0056 | 7.39 ± 0.36 | 14.5 ± 2.1 | 6.97 |  | 6.6 | 12.3 |
| MPVITLPDGSQRHYDHAVSPMDVALDIGPGLAKACIAGRVNGELVDACDLIENDAQLSIITAKDEEGLEIIRHSCAHLLGHAIKQLWPHTKMAIGPVIDNGFYYDVDLDRTLTQEDVEALEKRMHELAEKNYDVIKKKVSWHEARETFANRGESYKVSILDENIAHDDKPGLYFHEEYVDMCRGPHVPNMRFCHHFKLMKTAGAYWRGDSNNKMLQRIYGTAWADKKALNAYLQRLEEAAKRDHRKIGKQLDLYHMQEEAPGMVFWHNDGWTIFRELEVFVRSKLKEYQYQEVKGPFMMDRVLWEKTGHWDNYKDAMFTTSSENREYCIKPMNCPGHVQIFNQGLKSYRDLPLRMAEFGSCHRNEPSGSLHGLMRVRGFTQDDAHIFCTEEQIRDEVNGCIRLVYDMYSTFGFEKIVVKLSTRPEKRIGSDEMWDRAEADLAVALEENNIPFEYQLGEGAFYGPKIEFTLYDCLDRAWQCGTVQLDFSLPSRLSASYVGEDNERKVPVMIHRAILGSMERFIGILTEEFAGFFPTWLAPVQVVIMNITDSQSEYVNELTQKLSNAGIRVKADLRNEKIGFKIREHTLRRVPYMLVCGDKEVESGKVAVRTRRGKDLGSMDVNEVIEKLQQEIRSRSLKQLEE [P0A8M3] | 5.73 ± 0.81 | 5.78 ± 1.1 | 5.411 ± 0.034 | 6.36 ± 0.29 | 5.34 ± 0.06 | 3.18 ± 0.052 | 6.43 ± 0.58 | 11.3 ± 0.88 | 5.35 ± 0.11 | 9.648 ± 0.077 | 5.99 ± 0.14 | 13.3 ± 0.97 |
| MATIDSMNKDTTRLSDGPDWTFDLLDVYLAEIDRVAKLYRLDTYPHQIEVITSEQMMDAYSSVGMPINYPHWSFGKKFIETERLYKHGQQGLAYEIVINSNPCIAYLMEENTITMQALVMAHACYGHNSFFKNNYLFRSWTDASSIVDYLIFARKYITECEERYGVDEVERLLDSCHALMNYGVDRYKRPQKISLQEEKARQKSREEYLQSQVNMLWRTLPKREEEKTVAEARRYPSEPQENLLYFMEKNAPLLESWQREILRIVRKVSQYFYPQKQTQVMNEGWATFWHYTILNHLYDEGKVTERFMLEFLHSHTNVVFQPPYNSPWYSGINPYALGFAMFQDIKRICQSPTEEDKYWFPDIAGSDWLETLHFAMRDFKDESFISQFLSPKVMRDFRFFTVLDDDRHNYLEISAIHNEEGYREIRNRLSSQYNLSNLEPNIQIWNVDLRGDRSLTLRYIPHNRAPLDRGRKEVLKHVHRLWGFDVMLEQQNEDGSIELLERCPPRMGNL | 4.27 ± 0.81 | 2.4 ± 0.062 | 1.59 ± 0.2 | 1.41 ± 0.15 | 1.49 ± 0.034 | 1.05 ± 0.18 | 1.49 ± 0.059 | 1.94 ± 0.49 | 1.48 ± 0.34 | 1.65 ± 0.15 | 1.48 ± 0.55 | 2.27 ± 0.67 |
